# Key:
# [1] = substrate: Nc1ccn([C@@H]2O[C@H](CO)[C@@H](O)[C@H]2O)c(=O)n1; assay: purified protein; details: Tris-HCl pH 7.5
# [2] = substrate: OC[C@H]1O[C@@H](n2cnc3c(O)ncnc32)[C@H](O)[C@@H]1O; assay: HILIC-HPLC of released nucleobase, Michaelis-Menten fit; format: biochemical, Limosilactobacillus reuteri; details: Tris-HCl pH 7.5
# Excerpt: (§1) HILIC-HPLC of released nucleobase, Michaelis-Menten fit on LreRihC_HisN
# [3] = substrate: Nc1ncnc2c1ncn2[C@@H]1O[C@H](CO)[C@@H](O)[C@H]1O; assay: as above; format: biochemical, Limosilactobacillus reuteri; details: Tris-HCl pH 7.5
# Excerpt: as §1
# [4] = substrate: O=c1[nH]c(=O)c2ncn([C@@H]3O[C@H](CO)[C@@H](O)[C@H]3O)c2[nH]1; assay: as above; format: biochemical, Limosilactobacillus reuteri; details: Tris-HCl pH 7.5
# Excerpt: as §1
# [5] = substrate: O=c1ccn([C@@H]2O[C@H](CO)[C@@H](O)[C@H]2O)c(=O)[nH]1; assay: as above; format: biochemical, Limosilactobacillus reuteri; details: Tris-HCl pH 7.5
# Excerpt: as §1
# [6] = substrate: OC[C@H]1O[C@@H](n2cnc3c(O)ncnc32)[C@H](O)[C@@H]1O; assay: as above; format: biochemical, Limosilactobacillus reuteri; details: Tris-HCl pH 7.5; remark: listed apart in the source
# Excerpt: (§2) HILIC-HPLC of released nucleobase, Michaelis-Menten fit on LreRihC_HisC
# [7] = substrate: Nc1ncnc2c1ncn2[C@@H]1O[C@H](CO)[C@@H](O)[C@H]1O; assay: as above; format: biochemical, Limosilactobacillus reuteri; details: Tris-HCl pH 7.5; remark: listed apart in the source
# Excerpt: as §2
# [8] = substrate: O=c1[nH]c(=O)c2ncn([C@@H]3O[C@H](CO)[C@@H](O)[C@H]3O)c2[nH]1; assay: as above; format: biochemical, Limosilactobacillus reuteri; details: Tris-HCl pH 7.5; remark: listed apart in the source
# Excerpt: as §2
# [9] = biological target: the molecule itself; assay: SEC; analytical gel filtration on HiLoad 16/600 Superdex 200 pg, 1 mg of sample applied, mass read from a calibration curve (Gel Filtration Calibration Kit HMW)
protein,measurement,setting,value
"LreRihC_HisN (Limosilactobacillus reuteri) (protein, E. coli BL21(DE3), pET24a(+); tetramer (121 kDa)) TTKIIMDTDPGIDDAAALTMAINDPSLDLKLVTTVAGNVTADKTTANALKIIHFFGKDIPVAAGAKQPLIKPFEDAARIHGESGMPGYDFGDDYGKPLDKTAVEALHDAIMAEDEVILVPTGSYTNIALLFSEYPEVKSHIKQIVAMGGSFSGGNMTSAAEFNVFTDPDAAKIMYNAGVPIVTVGLDVTLKALLTADTIEKLGSLNKTGEMLHGLITHYNDGNDQGRPMHDVNTIFYLLHPEAFTTKDMWVDIQTDGPAIGATVGDIRAAYHDGKTNAKVCLDIDAEYFNKWFLEEVSKMK",Km,[1],680 ± 80 µM
same,kcat,[1],112 ± 4 s⁻¹
same,Km,[2],2500 ± 600 µM
same,kcat,[2],30 ± 5 s⁻¹
same,Km,[3],420 ± 50 µM
same,kcat,[3],118 ± 4 s⁻¹
same,Km,[4],1200 ± 200 µM
same,kcat,[4],57 ± 8 s⁻¹
same,Km,[5],320 ± 40 µM
same,kcat,[5],167 ± 6 s⁻¹
"LreRihC_HisC (Limosilactobacillus reuteri) (protein, E. coli BL21(DE3), pET24a(+); tetramer (123 kDa)) MTTKIIMDTDPGIDDAAALTMAINDPSLDLKLVTTVAGNVTADKTTANALKIIHFFGKDIPVAAGAKQPLIKPFEDAARIHGESGMPGYDFGDDYGKPLDKTAVEALHDAIMAEDEVILVPTGSYTNIALLFSEYPEVKSHIKQIVAMGGSFSGGNMTSAAEFNVFTDPDAAKIMYNAGVPIVTVGLDVTLKALLTADTIEKLGSLNKTGEMLHGLITHYNDGNDQGRPMHDVNTIFYLLHPEAFTTKDMWVDIQTDGPAIGATVGDIRAAYHDGKTNAKVCLDIDAEYFNKWFLEEVSKMK",Km,[1],620 ± 60 µM
same,kcat,[1],58 ± 6 s⁻¹
same,Km,[6],2600 ± 600 µM
same,kcat,[6],18 ± 6 s⁻¹
same,Km,[7],480 ± 90 µM
same,kcat,[7],65 ± 7 s⁻¹
same,Km,[8],1300 ± 200 µM
same,kcat,[8],40 ± 6 s⁻¹
"ribonucleoside hydrolase C from Limosilactobacillus reuteri LR1 with the addition of His-tag to the N-terminus of the enzyme (enzyme, UniProt A5JJT3 1-302, looked up, Ribonucleoside hydrolase C (RihC) of Limosilactobacillus reuteri LR1, cloned from genomic DNA with primers from the start codon to the stop codon; 308 residues and 33.38 kDa with the His-tag; The residue numbers printed for the crystal structure (D16, D20, D21, loop DGNDQ 228-232) seem to count on the tagged construct (surmised from the primer); Each subunit holds one Ca2+ ion; source: E. coli …) MTTKIIMDTDPGIDDAAALTMAINDPSLDLKLVTTVAGNVTADKTTANALKIIHFFGKDIPVAAGAKQPLIKPFEDAARIHGESGMPGYDFGDDYGKPLDKTAVEALHDAIMAEDEVILVPTGSYTNIALLFSEYPEVKSHIKQIVAMGGSFSGGNMTSAAEFNVFTDPDAAKIMYNAGVPIVTVGLDVTLKALLTADTIEKLGSLNKTGEMLHGLITHYNDGNDQGRPMHDVNTIFYLLHPEAFTTKDMWVDIQTDGPAIGATVGDIRAAYHDGKTNAKVCLDIDAEYFNKWFLEEVSKMK",stoichiometry N,[9],4
"ribonucleoside hydrolase C from Limosilactobacillus reuteri LR1 with the addition of His-tag to the C-terminus of the enzyme (enzyme, UniProt A5JJT3 1-302, looked up, 308 residues and 33.38 kDa with the His-tag; PDB 8QND is the structure of the N-terminally tagged form of the same protein; source: E. coli BL21(DE3), purified (HisTrap FF, desalted on Sephadex G25); not shown: His6, C-terminal, kept) MTTKIIMDTDPGIDDAAALTMAINDPSLDLKLVTTVAGNVTADKTTANALKIIHFFGKDIPVAAGAKQPLIKPFEDAARIHGESGMPGYDFGDDYGKPLDKTAVEALHDAIMAEDEVILVPTGSYTNIALLFSEYPEVKSHIKQIVAMGGSFSGGNMTSAAEFNVFTDPDAAKIMYNAGVPIVTVGLDVTLKALLTADTIEKLGSLNKTGEMLHGLITHYNDGNDQGRPMHDVNTIFYLLHPEAFTTKDMWVDIQTDGPAIGATVGDIRAAYHDGKTNAKVCLDIDAEYFNKWFLEEVSKMK",stoichiometry N,[9],4
